Laboratory results taken from article PMC11077948.

Columns and labels:
[1] = molecular target: S. mutans CLC^F homologue encoded by ORF 1290 (Streptococcus mutans UA159); experiment: cross-linking; 0.2 mg/mL purified protein in detergent (DM) with 0.125% glutaraldehyde (~500-fold molar excess) at room temperature for the indicated times, quenched with 0.15 M Tris-HCl pH 7.5, SDS-PAGE; monomer and dimer bands
[2] = molecular target: S. mutans CLC^F F-/H+ antiporter encoded by ORF 1289 (Streptococcus mutans UA159); experiment: as above

Substance | stoichiometry N [1] | stoichiometry N [2]
S. mutans CLC^F homologue encoded by ORF 1290 (natural protein) | 2 | 
S. mutans CLC^F F-/H+ antiporter encoded by ORF 1289 (natural protein) |  | 2
